According to IntAct's records for PubMed 18923430:

Molecular target: dnjc3_mouse Dnajc3 (UniProt Q91YW3)
Sequence (Q91YW3 whole entry): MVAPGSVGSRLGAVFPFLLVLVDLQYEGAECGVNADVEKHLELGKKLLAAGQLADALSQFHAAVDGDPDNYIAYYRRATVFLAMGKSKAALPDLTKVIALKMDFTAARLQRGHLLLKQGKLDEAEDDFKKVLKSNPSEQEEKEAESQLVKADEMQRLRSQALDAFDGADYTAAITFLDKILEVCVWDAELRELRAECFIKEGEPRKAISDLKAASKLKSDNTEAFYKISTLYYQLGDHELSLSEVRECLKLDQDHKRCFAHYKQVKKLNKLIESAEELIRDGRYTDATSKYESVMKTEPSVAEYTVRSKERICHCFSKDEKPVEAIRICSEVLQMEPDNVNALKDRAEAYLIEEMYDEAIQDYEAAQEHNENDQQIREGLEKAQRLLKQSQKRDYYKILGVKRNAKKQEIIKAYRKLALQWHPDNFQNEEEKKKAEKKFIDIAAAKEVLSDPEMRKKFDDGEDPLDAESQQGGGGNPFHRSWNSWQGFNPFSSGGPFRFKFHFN

effect of a mutation on the interaction: disrupting interaction
Substance: Endoplasmic reticulum chaperone BiP (Homo sapiens), P11021 E201G
